Measurements reported in the supplement of paper PMC10724198.
± gives the standard deviation of the averaged measurements.

test system: Saccharomyces cerevisiae; assay: protein stability index of tFT-peptide fusion (C-terminal peptide) (PSI (0-1 scale)); higher = more stable (slower turnover); details: genetic background: doa10 deletion; temperature: 30 C
Description: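 MPS profiling in S. cerevisiae of the tFT-X12 degron library: putative degron peptides plus stable controls, 12 aa, fused to the C-terminus of a sfGFP-mCherry timer. Cells are FACS-sorted into 8 mCherry/sfGFP bins and deep-sequenced. PSI runs from 0 (unstable) to 1 (stable). Backgrounds are wild type, das1Δ and doa10Δ at 30 °C, and wild type, das1Δ, cdc34-1 and cdc53-1 at 37 °C; 2-3 technical replicates each.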
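Note: PSI is a weighted mean of sequencing reads over stability bins, variants kept only with over 10 reads, mCherry proximal and sfGFP distal, peptide attached via GGGS linker.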

Compared with CLFSVLFPLFFR, CLGLFPSLLRLS is lower in protein stability index: 0.6444 ± 0.0064 for the first, 0.285 ± 0.026 for the second.

First: CLLWVVWSLLWV
Second: CLVFGFLFFIVI
The protein stability index of the first is lower: 0.269 ± 0.0094 for the first, 0.435 ± 0.016 for the second.

Compared with CLWNFWVRFLLL, CMLGVVRVLVWF is lower in protein stability index: 0.164 ± 0.0046 for the first, 0.101 ± 0.0035 for the second.

First: CMLPWPILLCPF
Second: CMPVYYTVVIRL
The protein stability index of the first is higher: 0.517 ± 0.022 for the first, 0.246 ± 0.021 for the second.

CPALTFCLLLSS and CPFLTLLISLDV are within error of each other in protein stability index: 0.427 ± 0.015 for the first, 0.407 ± 0.011 for the second.

Compared with CPICDFLFLALF, CRHCFVLLYFDY is lower in protein stability index: 0.469 ± 0.023 for the first, 0.421 ± 0.017 for the second.

Compared with CRLATILRITAL, CSLFFFRLIFTL is lower in protein stability index: 0.193 ± 0.008 for the first, 0.0783 ± 0.0034 for the second.

Compared with CSLFYVFYRRLL, CSLRGLFLVVSV is higher in protein stability index: 0.285 ± 0.011 for the first, 0.339 ± 0.025 for the second.

Compared with DFWCIIVIFLFR, EKKKKKRKNKIK is higher in protein stability index: 0.225 ± 0.0077 for the first, 0.649 ± 0.016 for the second.

Going from FHSALIAIAAYV to LSLLILFVLLSF, the protein stability index rises from 0.162 ± 0.024 to 0.3914 ± 0.00083.

Compared with LVGYSVFVLFFS, PLPSRLRRFVPV is higher in protein stability index: 0.21 ± 0.0089 for the first, 0.613 ± 0.018 for the second.

First: PPCSLLPPPPAP
Second: RGGVRGVRSGRG
The protein stability index of the first is higher: 0.715 ± 0.023 for the first, 0.4741 ± 0.0046 for the second.

Compared with SLTHTPLGVTRT, TGGGGRVSLGVG is lower in protein stability index: 0.635 ± 0.013 for the first, 0.377 ± 0.0077 for the second.

Going from TLDWKFGWGGIG to VLRFVYDLVSAL, the protein stability index falls from 0.5685 ± 0.002 to 0.334 ± 0.0067.

Going from VQTVRLVFQVLA to VRWALLGVVVEG, the protein stability index rises from 0.106 ± 0.0074 to 0.246 ± 0.0085.

same assay, conditions: genetic background: wild type; temperature: 30 C

First: AAFLGVLCWCWG
Second: ACVRFPLVLVVF
The protein stability index of the first is higher: 0.351 ± 0.019 for the first, 0.0825 ± 0.029 for the second.

Compared with AFKRVFWALWWM, AFLFLFSITCIV is lower in protein stability index: 0.299 ± 0.022 for the first, 0.19 ± 0.028 for the second.

AFPVGFLVGLVV and AGCFFVVLCGFF are within error of each other in protein stability index: 0.348 ± 0.021 for the first, 0.326 ± 0.0067 for the second.

Compared with AIDLCIAVVGMV, AITHVILLVTPL is higher in protein stability index: 0.342 ± 0.026 for the first, 0.417 ± 0.022 for the second.

First: ALFVGVVLLVCW
Second: ALHGTVRNWQRQ
The protein stability index of the first is lower: 0.156 ± 0.032 for the first, 0.245 ± 0.0071 for the second.

Going from ALLLLLRRFFLV to ALMTFTLVFTYM, the protein stability index rises from 0.101 ± 0.044 to 0.173 ± 0.027.

ALPLRSNILSVF and ALWFVLISILCL are within error of each other in protein stability index: 0.283 ± 0.023 for the first, 0.291 ± 0.017 for the second.

First: APLPPPPASVPP
Second: APPHPPPATFLS
The protein stability index of the first is higher: 0.649 ± 0.03 for the first, 0.357 ± 0.026 for the second.

Going from ARFCFRIFSFAS to ASCFFLFVLRVF, the protein stability index rises from 0.0456 ± 0.0018 to 0.112 ± 0.017.

Going from ATLWVWCFSSHV to ATSGATILVLIA, the protein stability index falls from 0.447 ± 0.021 to 0.218 ± 0.021.

Going from CEVLVVVMCLWG to CFFPFLCFVVGA, the protein stability index rises from 0.217 ± 0.025 to 0.346 ± 0.013.

Going from CLFFFFFHLPIF to CLFSVLFPLFFR, the protein stability index falls from 0.389 ± 0.023 to 0.142 ± 0.0055.

CLGLFPSLLRLS and CLLWVVWSLLWV are within error of each other in protein stability index: 0.291 ± 0.033 for the first, 0.257 ± 0.034 for the second.

Going from CLVFGFLFFIVI to CLWNFWVRFLLL, the protein stability index falls from 0.35 ± 0.029 to 0.139 ± 0.01.

Going from CMLGVVRVLVWF to CMLPWPILLCPF, the protein stability index rises from 0.105 ± 0.051 to 0.389 ± 0.0084.

Going from CMPVYYTVVIRL to CPALTFCLLLSS, the protein stability index rises from 0.159 ± 0.024 to 0.383 ± 0.019.

CPFLTLLISLDV and CPICDFLFLALF are within error of each other in protein stability index: 0.426 ± 0.01 for the first, 0.424 ± 0.028 for the second.

Going from CRHCFVLLYFDY to CRLATILRITAL, the protein stability index falls from 0.318 ± 0.023 to 0.241 ± 0.031.

Compared with CSLFFFRLIFTL, CSLFYVFYRRLL is higher in protein stability index: 0.0603 ± 0.017 for the first, 0.342 ± 0.051 for the second.

CSLRGLFLVVSV and DFWCIIVIFLFR are within error of each other in protein stability index: 0.292 ± 0.02 for the first, 0.251 ± 0.031 for the second.

Going from EKKKKKRKNKIK to FHSALIAIAAYV, the protein stability index falls from 0.652 ± 0.025 to 0.202 ± 0.016.

Compared with LSLLILFVLLSF, LVGYSVFVLFFS is lower in protein stability index: 0.385 ± 0.024 for the first, 0.226 ± 0.048 for the second.

PLPSRLRRFVPV and PPCSLLPPPPAP are within error of each other in protein stability index: 0.62 ± 0.014 for the first, 0.674 ± 0.056 for the second.

Going from RGGVRGVRSGRG to SLTHTPLGVTRT, the protein stability index rises from 0.485 ± 0.02 to 0.642 ± 0.011.

Compared with TGGGGRVSLGVG, TLDWKFGWGGIG is higher in protein stability index: 0.359 ± 0.016 for the first, 0.574 ± 0.021 for the second.

Going from VLRFVYDLVSAL to VQTVRLVFQVLA, the protein stability index falls from 0.342 ± 0.021 to 0.125 ± 0.031.

For VRWALLGVVVEG, the protein stability index was 0.286 ± 0.027.

same assay, conditions: genetic background: wild type; temperature: 37 C

First: AAFLGVLCWCWG
Second: ACVRFPLVLVVF
The protein stability index of the first is higher: 0.4703 ± 0.00083 for the first, 0.0644 ± 0.0039 for the second.

First: AFKRVFWALWWM
Second: AFLFLFSITCIV
The protein stability index of the first is higher: 0.43827 ± 0.00033 for the first, 0.313 ± 0.0012 for the second.

AFPVGFLVGLVV and AGCFFVVLCGFF are within error of each other in protein stability index: 0.4647 ± 0.0044 for the first, 0.4673 ± 0.0025 for the second.

Going from AIDLCIAVVGMV to AITHVILLVTPL, the protein stability index rises from 0.4829 ± 0.001 to 0.552 ± 0.0087.

Going from ALFVGVVLLVCW to ALHGTVRNWQRQ, the protein stability index rises from 0.24564 ± 0.00015 to 0.535 ± 0.04.

Going from ALLLLLRRFFLV to ALMTFTLVFTYM, the protein stability index rises from 0.0903 ± 0.02 to 0.278 ± 0.027.

Going from ALPLRSNILSVF to ALWFVLISILCL, the protein stability index falls from 0.45 ± 0.011 to 0.3896 ± 0.0022.

Going from APLPPPPASVPP to APPHPPPATFLS, the protein stability index falls from 0.691 ± 0.0089 to 0.574 ± 0.012.

Compared with ARFCFRIFSFAS, ASCFFLFVLRVF is higher in protein stability index: 0.0722 ± 0.018 for the first, 0.14 ± 0.019 for the second.

Compared with ATLWVWCFSSHV, ATSGATILVLIA is lower in protein stability index: 0.5991 ± 0.0014 for the first, 0.342 ± 0.0064 for the second.

First: CEVLVVVMCLWG
Second: CFFPFLCFVVGA
The protein stability index of the first is lower: 0.32342 ± 4.2e-05 for the first, 0.49 ± 0.0059 for the second.

Going from CLFFFFFHLPIF to CLFSVLFPLFFR, the protein stability index falls from 0.476 ± 0.021 to 0.184 ± 0.073.

Going from CLGLFPSLLRLS to CLLWVVWSLLWV, the protein stability index falls from 0.535 ± 0.009 to 0.416 ± 0.0074.

Compared with CLVFGFLFFIVI, CLWNFWVRFLLL is lower in protein stability index: 0.447 ± 0.037 for the first, 0.135 ± 0.0083 for the second.

Compared with CMLGVVRVLVWF, CMLPWPILLCPF is higher in protein stability index: 0.17 ± 0.027 for the first, 0.456 ± 0.03 for the second.

First: CMPVYYTVVIRL
Second: CPALTFCLLLSS
The protein stability index of the first is lower: 0.31 ± 0.021 for the first, 0.557 ± 0.01 for the second.

Going from CPFLTLLISLDV to CPICDFLFLALF, the protein stability index rises from 0.513 ± 0.028 to 0.598 ± 0.03.

Sequence CRHCFVLLYFDY has a protein stability index of 0.374 ± 0.0097.
